Patent US5362864, “Trans-activating factor-1” (The Trustees of the Rockefeller University)

Columns and labels:
[1] = biological target: T1, truncated TAF-1 (p5a product from Met-22) (Nicotiana tabacum, UniProt Q99142 SEQ:1-244); assay: competition; self competition; direct EMSA complexes in FIG. 2D; poly(dI-dC); conditions: tags: expressed from pSK(-) lacZ promoter in E. coli, ammonium sulfate fraction; chain copies: 2 (inferred); label: fill-in labelled
T1 sequence: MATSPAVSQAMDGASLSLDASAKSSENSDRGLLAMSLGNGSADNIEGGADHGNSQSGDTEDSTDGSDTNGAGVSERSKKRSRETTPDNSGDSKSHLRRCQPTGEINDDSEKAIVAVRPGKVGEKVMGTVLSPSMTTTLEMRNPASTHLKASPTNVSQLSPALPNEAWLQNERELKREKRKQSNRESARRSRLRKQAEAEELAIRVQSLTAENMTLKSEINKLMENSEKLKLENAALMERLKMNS
Excerpt: (§1) FIG. 4A. TAF-1 preferentially binds to a perfect palindromic sequence. Tetramers of WT motif I, the mutant M1, and the perfect palindrome (PA), […], (SEQ. ID NO: 9) were used as probes in gel mobility shift-assays with E. coli extracts containing the truncated TAF-1. F, free probe; NC, non-specific complex. The specific complexes, indicated with arrowheads, have a slower mobility as compared to the non-specific complex. FIG. 4B. Relative binding affinities of TAF-1 to motif I (WT) and related sequences. WT motif I tetramer was used as a probe in gel mobility shift assays with E. coli extracts containing the truncated TAF-1. Different concentrations of tetramers of mutants M1 to M5, as well as the tetramer of the perfect palindromic sequence (PA) were tested for their ability to compete with the WT sequence for TAF-1. For WT, PA, M1 and M5, the concentrations that gave approximately 50% competition were used in the experiments shown here. Higher concentrations were used for mutants M2, M3 and M4. Comp., Competitor. FIG. 4C. Nucleotide sequences of WT (SEQ. ID NO: 11), mutants M1 to M5 (SEQ. ID NOS: 10, 13, 14, 15 and 12), and the perfect palindrome, PA (SEQ. ID NO: 9). In this figure, the WT motif I of the tetramer is shown with the TACGTG hexanucleotide as the core sequence. The 5' nucleotide G of the motif is derived from the 3' nucleotide of the preceding motif in the tetramer. […]

[2] = biological target: T1, truncated TAF-1 (p5a product from …); assay: competition; 60 ng gave about 50% competition; increased affinity also in direct EMSA; conditions: tags: expressed from pSK(-) lacZ promoter in E. coli, ammonium sulfate fraction; chain copies: 2 (inferred)
Excerpt: as §1

[3] = biological target: T1, truncated TAF-1 (p5a product from …); assay: competition; 3 ng gave about 50% competition against WT probe; 200 ng needed for WT; direct EMSA also stronger than WT (FIG. 4A); conditions: tags: expressed from pSK(-) lacZ promoter in E. coli, ammonium sulfate fraction; chain copies: 2 (inferred)
Excerpt: as §1

B1: motif I WT tetramer (dsDNA)
DNA 1: GTACGTGGCGGTACGTGGCGGTACGTGGCGGTACGTGGCG
DNA 2: CGCCACGTACCGCCACGTACCGCCACGTACCGCCACGTAC
IC50 [1]: ~200 ng

B2: M1 tetramer (dsDNA)
DNA 1: CAACGTGGCGCAACGTGGCGCAACGTGGCGCAACGTGGCG
DNA 2: CGCCACGTTGCGCCACGTTGCGCCACGTTGCGCCACGTTG
binding signal [2]: 3.3 fold vs WT

B3: PA perfect palindrome (G-box) tetramer (dsDNA)
DNA 1: GCCACGTGGCGCCACGTGGCGCCACGTGGCGCCACGTGGC
DNA 2: GCCACGTGGCGCCACGTGGCGCCACGTGGCGCCACGTGGC
binding signal [3]: ~66 fold vs WT
